Measured values reported in patent publication US20160326228A1 (ACCELERON PHARMA, published 2016).
Where a chain is given by its changes, count along the chain named. Names and notes keep the numbering of the source.

T1: Growth and Differentiation Factor-11 (GDF11) (UniProt O95390 299-407)
T1 construct: also called BMP11
T1 sequence (looked up): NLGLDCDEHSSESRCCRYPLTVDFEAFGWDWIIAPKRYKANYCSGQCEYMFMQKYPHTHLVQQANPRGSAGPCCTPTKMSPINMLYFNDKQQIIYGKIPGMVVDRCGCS

T2: Activin A (UniProt P08476 311-426)
T2 construct: also called ActA
T2 sequence (looked up): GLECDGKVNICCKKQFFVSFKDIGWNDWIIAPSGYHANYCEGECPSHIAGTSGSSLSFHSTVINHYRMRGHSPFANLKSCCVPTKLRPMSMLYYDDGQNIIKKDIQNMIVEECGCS

T3: Activin B (UniProt P09529 293-407)
T3 sequence (looked up): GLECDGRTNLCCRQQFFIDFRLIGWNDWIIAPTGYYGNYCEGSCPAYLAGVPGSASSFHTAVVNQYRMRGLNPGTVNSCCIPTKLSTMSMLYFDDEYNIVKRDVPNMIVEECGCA

T4: Growth and Differentiation Factor-8 (GDF8) (UniProt O14793 267-375)
T4 construct: also called myostatin
T4 sequence (looked up): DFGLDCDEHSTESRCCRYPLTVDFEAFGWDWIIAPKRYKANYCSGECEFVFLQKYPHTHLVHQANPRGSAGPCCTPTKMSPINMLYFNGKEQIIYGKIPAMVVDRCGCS

B1: ActRIIB(L79D 20-134)-hFc (Fc fusion)
chain: GRGEAETRECIYYNANWELERTNQSGLERCEGEQDKRLHCYASWRNSSGTIELVKKGCWDDDFNCYDRQECVATEENPQVYFCCCEGNFCNERFTHLPEAGGPEVTYEPPPTAPTGGGTHTCPPCPAPELLGGPSVFLFPPKPKDTLMISRTPEVTCVVVDVSHEDPEVKFNWYVDGVEVHNAKTKPREEQYNSTYRVVSVLTVLHQDWLNGKEYKCKVSNKALPVPIEKTISKAKGQPREPQVYTLPPSREEMTKNQVSLTCLVKGFYPSDIAVEWESNGQPENNYKTTPPVLDSDGSFFLYSKLTVDKSRWQQGNVFSCSVMHEALHNHYTQKSLSLSPGK
notes: also called GDF Trap
B2: ActRIIB(L79 25-131)-hFc (Fc fusion)
chain: ETRECIYYNANWELERTNQSGLERCEGEQDKRLHCYASWRNSSGTIELVKKGCWLDDFNCYDRQECVATEENPQVYFCCCEGNFCNERFTHLPEAGGPEVTYEPPPT
notes: also called ActRIIB(25-131)-hFc; not shown: linker (if any) and human Fc (hFc)
B3: Soluble ActRIIB-Fc variant D54A (Fc fusion)
chain: GRGEAETRECIYYNANWELERTNQSGLERCEGEQAKRLHCYASWANSSGTIELVKKGCWLDDFNCYDRQECVATEENPQVYFCCCEGNFCNERFTHLPEA
notes: whole entry named; not shown: linker (if any) and Fc
B4: Soluble ActRIIB-Fc variant D80K (Fc fusion)
chain: B3 chain with A35D, D61K
notes: as for B3
B5: Soluble ActRIIB-Fc variant D80N (Fc fusion)
chain: B3 chain with A35D, D61N
notes: as for B3
B6: Soluble ActRIIB-Fc variant D80F (Fc fusion)
chain: B3 chain with A35D, D61F
notes: as for B3
B7: Soluble ActRIIB-Fc variant E37A (Fc fusion)
chain: B3 chain with E18A, A35D
notes: as for B3
B8: Soluble ActRIIB-Fc variant L79A (Fc fusion)
chain: B3 chain with A35D, L60A
notes: as for B3
B9: Soluble ActRIIB-Fc variant D80M (Fc fusion)
chain: B3 chain with A35D, D61M
notes: as for B3
B10: Soluble ActRIIB-Fc variant W78A (Fc fusion)
chain: B3 chain with A35D, W59A
notes: as for B3
B11: Soluble ActRIIB-Fc variant D80R (Fc fusion)
chain: B3 chain with A35D, D61R
notes: as for B3
B12: Soluble ActRIIB-Fc variant K55A (Fc fusion)
chain: B3 chain with A35D, K36A
notes: as for B3
B13: Soluble ActRIIB-Fc variant D80A (Fc fusion)
chain: B3 chain with A35D, D61A
notes: as for B3
B14: Soluble ActRIIB-Fc variant R56A (Fc fusion)
chain: B3 chain with A35D, R37A
notes: as for B3
B15: Soluble ActRIIB-Fc variant D80G (Fc fusion)
chain: B3 chain with A35D, D61G
notes: as for B3
B16: Soluble ActRIIB-Fc variant K74A (Fc fusion)
chain: B3 chain with A35D, K55A
notes: as for B3
B17: Soluble ActRIIB-Fc WT (64A) (Fc fusion, UniProt Q13705 19-119, looked up)
chain: SGRGEAETRECIYYNANWELERTNQSGLERCEGEQDKRLHCYASWANSSGTIELVKKGCWLDDFNCYDRQECVATEENPQVYFCCCEGNFCNERFTHLPEA
notes: as for B3
B18: Soluble ActRIIB-Fc variant K74Y (Fc fusion)
chain: B3 chain with A35D, K55Y
notes: as for B3
B19: Soluble ActRIIB-Fc variant D80I (Fc fusion)
chain: B3 chain with A35D, D61I
notes: as for B3
B20: Soluble ActRIIB-Fc variant K74I (Fc fusion)
chain: B3 chain with A35D, K55I
notes: as for B3
B21: Soluble ActRIIB-Fc variant K74F (Fc fusion)
chain: B3 chain with A35D, K55F
notes: as for B3
B22: ActRIIB(L79E 20-134)-hFc (Fc fusion)
chain: B1 chain with D60E
B23: ActRIIB(A24N 20-134)-hFc (Fc fusion)
chain: GRGENETRECIYYNANWELERTNQSGLERCEGEQDKRLHCYASWRNSSGTIELVKKGCWLDDFNCYDRQECVATEENPQVYFCCCEGNFCNERFTHLPEAGGPEVTYEPPPTAPT
notes: also called A24N variant; not shown: linker (if any) and human Fc (hFc)
B24: ActRIIB(R64K 20-134)-hFc (Fc fusion)
chain: B23 chain with N5A, R45K
notes: not shown: linker (if any) and human Fc (hFc)
B25: ActRIIB(R64K 20-129)-hFc (Fc fusion)
chain: GRGEAETRECIYYNANWELERTNQSGLERCEGEQDKRLHCYASWKNSSGTIELVKKGCWLDDFNCYDRQECVATEENPQVYFCCCEGNFCNERFTHLPEAGGPEVTYEPP
notes: as for B24
B26: ActRIIB(P129S, P130R 20-134)-hFc (Fc fusion)
chain: B23 chain with N5A, P110S, P111R
notes: T0017 prints a P129S P130A variant; kept as a separate molecule; not shown: linker (if any) and human Fc (hFc)
B27: ActRIIB(K74A 20-134)-hFc (Fc fusion)
chain: B23 chain with N5A, K55A
notes: as for B24

Each binder was assayed against T1, Growth and Differentiation Factor-11 … (assay: Biacore; steady-state affinity fit).
Description: (§1) The affinity of GDF Traps and other ActRIIB-hFc proteins for several ligands was evaluated in vitro with a BiacoreTM instrument. Kd values were obtained by steady-state affinity fit due to the very rapid association and dissociation of the complex, which prevented accurate determination of kₒₙ and koff.

Row | Kd | Binder
1 | 0.123 nM | B1
2 | 0.031 nM | B2

These binders were tested against T2, Activin A (assay: Biacore; steady-state affinity fit).
Description: as §1

Row | Kd | Binder
3 | 13.5 nM | B1
4 | 0.018 nM | B2

The binders below were run against T3, Activin B (assay: Biacore; steady-state affinity fit).
Description: as §1

Row | Kd | Binder
5 | 0.788 nM | B1
6 | 0.012 nM | B2

The binders below were run against T1, Growth and Differentiation Factor-11 … (assay: BiaCore; ligand coupled, receptor flowed over).

Row | binding result | Kd | Binder
7 | no binding |  | B3
8 | no binding |  | B4
9 | no binding |  | B5
10 | no binding |  | B6
11 | no binding |  | B7
12 | no binding |  | B8
13 | no binding |  | B9
14 | no binding |  | B10
15 | no binding |  | B11
16 | no binding |  | B12
17 | no binding |  | B13
18 | no binding |  | B14
19 | no binding |  | B15
20 |  | 5.3 nM | B16
21 |  | 260 nM | B17

These binders were tested against T2, Activin A (assay: BiaCore; ligand coupled, receptor flowed over).

Row | binding result | Kd | Binder
22 | no binding |  | B4
23 | no binding |  | B5
24 | no binding |  | B18
25 | no binding |  | B6
26 | no binding |  | B7
27 | no binding |  | B9
28 | no binding |  | B10
29 | no binding |  | B11
30 | no binding |  | B13
31 | no binding |  | B19
32 | no binding |  | B20
33 | no binding |  | B14
34 | no binding |  | B15
35 |  | 4.35 nM | B16
36 | no binding |  | B21
37 |  | 180 nM | B17

The binders below were run against T1, Growth and Differentiation Factor-11 … (assay: BiaCore; receptor-Fc captured by anti-hFc antibody, ligand injected).
Description: (§2) Binding of certain ActRIIB-Fc proteins and GDF Traps to ligands was tested in a BiaCore™ assay.
(§3) The ActRIIB-Fc variants or wild-type protein were captured onto the system using an anti-hFc antibody. Ligands were injected and flowed over the captured receptor proteins.

Row | Kd | koff | Binder
38 | 0.655 nM | 0.000439 s⁻¹ | B1
39 | 0.716 nM | 0.000274 s⁻¹ | B22
40 | 0.0519 nM | 6.35e-05 s⁻¹ | B23
41 | 0.0356 nM | 2.41e-05 s⁻¹ | B24

Each binder was assayed against T2, Activin A in the same assay as above.
Description: as §2, §3

Row | Kd | koff | kon | Binder
42 | 0.0841 nM | 0.000628 s⁻¹ | 7.46e+06 M⁻¹ s⁻¹ | B25
43 | 0.104 nM | 0.000346 s⁻¹ | 3.34e+06 M⁻¹ s⁻¹ | B23
44 | 0.0476 nM | 0.000325 s⁻¹ | 6.82e+06 M⁻¹ s⁻¹ | B24
45 | 0.0831 nM | 0.000417 s⁻¹ | 5.02e+06 M⁻¹ s⁻¹ | B26

What follows are binders tested against T4, Growth and Differentiation Factor-8 … in the same assay as above.
Description: as §2, §3

Row | Kd | koff | Binder
46 | 2.15 nM | 0.00083 s⁻¹ | B1
47 | 2.41 nM | 0.0009 s⁻¹ | B22
48 | 2.15 nM | 0.000209 s⁻¹ | B25
49 | 0.0718 nM | 2.03e-05 s⁻¹ | B27
50 | 0.21 nM | 4.71e-05 s⁻¹ | B24
51 | 1.67 nM | 0.00018 s⁻¹ | B26

These binders were tested against T1, Growth and Differentiation Factor-11 … (assay: BiaCore; ligand coupled, receptor flowed over; legend: <1/5 WT binding).

Row | binding relative to WT | Binder
52 | < 0.2 fold | B18
53 | < 0.2 fold | B19
54 | < 0.2 fold | B20
55 | < 0.2 fold | B21
